From publication doi:10.1101/743195

Target: human low-density lipoprotein (LDL) particles (human)
Experiment: co-sedimentation

percent inhibition of LDL binding against WT [%] | percent decrease of LDL binding [%] | Substance
> 90 |  | PCSK9 A44P (from UniProt Q8NBP7) (natural protein)
 | > 50 | PCSK9 Y38A (from UniProt Q8NBP7) (natural protein)
